Results on one molecule are retold here after patent US20250361544A1, “TYPE III-D CRISPR-CAS SYSTEM AND USES THEREOF” (BOARD OF REGENTS, THE UNIVERSITY OF TEXAS SYSTEM, published 2025).

In experiment [1] the target is T1, Type III-Dv subunits co-expressed without Csx19 (Cas7-Cas5-Cas11, Cas7-2x and Cas7-insertion, with crRNA) (Synechocystis sp. PCC 6803).
T1 construct: These are the subunits left beside His-tagged Cas10 when csx19 carries a nonsense mutation (pPF3089); they are grouped here only as the prey set of the ΔCsx19 pulldown; also called ΔCsx19 complex; ΔCsx19 type Type III-Dv complex
Nature of the experiment: His-tag affinity purification and SEC of the ΔCsx19 co-expression; SDS-PAGE.

For experiment [2], the target named is T2, Csx19 subunit of the Synechocystis sp. PCC 6803 Type III-Dv complex (Synechocystis sp. PCC 6803).
T2 construct: Untagged, co-expressed from pPF2434 in E. coli; one copy in the complex
T2 chain: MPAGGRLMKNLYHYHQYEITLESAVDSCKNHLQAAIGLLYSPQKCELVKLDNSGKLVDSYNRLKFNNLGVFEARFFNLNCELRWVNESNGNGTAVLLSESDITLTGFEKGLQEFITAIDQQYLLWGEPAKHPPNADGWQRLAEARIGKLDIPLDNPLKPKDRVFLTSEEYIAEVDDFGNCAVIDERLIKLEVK
Nature of the experiment: cryo-EM structure of the binary complex, 2.5 Å. As for the experimental part: Fully assembled Type III-D binary complex was diluted to a concentration of 0.3 mg/ml in SEC buffer before 2.5 μl of sample was added to a quantifoil 1.2/1.3 grid that was glow discharged for 1 minute. Sample was applied to the grid in an FEI Vitrobot MarkIV kept at 100% humidity and 4° C. before blotting for 5.5 seconds with a force of 0. For the ssRNA target-bound complex, non-self ssRNA was mixed with the binary complex with a 2:1 molar ratio of RNA:Binary complex in SEC buffer to a final protein concentration of 0.3 mg/mL. Grids of the target-bound complex were frozen identical to that of the binary complex. Both grids were loaded to an FEI Titan Krios (Sauer Structural Biology Lab, University of Texas at Austin) operating at 300 kV. Images were taken at a pixel size of 0.81 Å/pixel with a dose rate of 10.6 e⁻/pixel/s for 5 seconds using a Gatan K3 direct electron detector, giving a final dosage of 80.5 e⁻/Å². Data collection was automated using SerialEM using a defocus range of −1.2 to −2.2 μm.
To delineate the architecture of this Type III-Dv effector, we used cryo-EM to determine a 2.5-Å resolution structure of the complex containing the nt crRNA (FIG. 1e,f, FIG. 8). To gain preliminary insights, we generated initial models of each subunit using Alphafold 2. […]

T1 sequence (chain, as listed by the source limits assumed, chain 1 of 3): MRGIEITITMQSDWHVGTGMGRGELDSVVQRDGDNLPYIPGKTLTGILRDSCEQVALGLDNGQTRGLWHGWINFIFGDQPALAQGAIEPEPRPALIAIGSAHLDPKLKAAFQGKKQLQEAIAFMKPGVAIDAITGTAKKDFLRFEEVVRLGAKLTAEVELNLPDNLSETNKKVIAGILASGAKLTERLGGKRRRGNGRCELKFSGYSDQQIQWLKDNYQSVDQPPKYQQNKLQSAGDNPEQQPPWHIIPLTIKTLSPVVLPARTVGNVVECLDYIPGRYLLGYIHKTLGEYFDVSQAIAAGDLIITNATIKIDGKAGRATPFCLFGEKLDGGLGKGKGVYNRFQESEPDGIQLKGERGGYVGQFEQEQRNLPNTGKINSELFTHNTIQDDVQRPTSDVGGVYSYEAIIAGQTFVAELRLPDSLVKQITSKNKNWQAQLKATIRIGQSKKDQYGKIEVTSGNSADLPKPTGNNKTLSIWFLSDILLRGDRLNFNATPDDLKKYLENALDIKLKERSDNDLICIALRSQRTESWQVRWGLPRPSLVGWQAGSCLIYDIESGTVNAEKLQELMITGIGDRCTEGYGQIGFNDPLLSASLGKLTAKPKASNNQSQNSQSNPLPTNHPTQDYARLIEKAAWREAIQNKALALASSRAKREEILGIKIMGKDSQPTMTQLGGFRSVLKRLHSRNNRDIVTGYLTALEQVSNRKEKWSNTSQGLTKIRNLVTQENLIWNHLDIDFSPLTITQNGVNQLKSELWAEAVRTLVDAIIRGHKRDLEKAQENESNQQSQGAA
T1 sequence (chain, as listed by the source limits assumed, chain 2 of 3): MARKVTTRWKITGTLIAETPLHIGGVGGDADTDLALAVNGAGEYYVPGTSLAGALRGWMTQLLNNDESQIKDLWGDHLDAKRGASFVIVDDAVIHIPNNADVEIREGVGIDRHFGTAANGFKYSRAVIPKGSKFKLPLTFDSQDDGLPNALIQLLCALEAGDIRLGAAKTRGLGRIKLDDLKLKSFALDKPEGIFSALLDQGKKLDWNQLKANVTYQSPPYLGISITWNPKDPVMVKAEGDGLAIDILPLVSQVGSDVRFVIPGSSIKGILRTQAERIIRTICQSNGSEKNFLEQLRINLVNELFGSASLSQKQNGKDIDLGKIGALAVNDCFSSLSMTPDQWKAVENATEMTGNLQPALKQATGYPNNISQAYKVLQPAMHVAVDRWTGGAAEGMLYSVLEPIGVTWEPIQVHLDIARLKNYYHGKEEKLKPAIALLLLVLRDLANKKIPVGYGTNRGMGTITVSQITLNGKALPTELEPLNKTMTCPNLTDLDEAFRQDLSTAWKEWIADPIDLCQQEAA
T1 sequence (chain, as listed by the source limits assumed, chain 3 of 3): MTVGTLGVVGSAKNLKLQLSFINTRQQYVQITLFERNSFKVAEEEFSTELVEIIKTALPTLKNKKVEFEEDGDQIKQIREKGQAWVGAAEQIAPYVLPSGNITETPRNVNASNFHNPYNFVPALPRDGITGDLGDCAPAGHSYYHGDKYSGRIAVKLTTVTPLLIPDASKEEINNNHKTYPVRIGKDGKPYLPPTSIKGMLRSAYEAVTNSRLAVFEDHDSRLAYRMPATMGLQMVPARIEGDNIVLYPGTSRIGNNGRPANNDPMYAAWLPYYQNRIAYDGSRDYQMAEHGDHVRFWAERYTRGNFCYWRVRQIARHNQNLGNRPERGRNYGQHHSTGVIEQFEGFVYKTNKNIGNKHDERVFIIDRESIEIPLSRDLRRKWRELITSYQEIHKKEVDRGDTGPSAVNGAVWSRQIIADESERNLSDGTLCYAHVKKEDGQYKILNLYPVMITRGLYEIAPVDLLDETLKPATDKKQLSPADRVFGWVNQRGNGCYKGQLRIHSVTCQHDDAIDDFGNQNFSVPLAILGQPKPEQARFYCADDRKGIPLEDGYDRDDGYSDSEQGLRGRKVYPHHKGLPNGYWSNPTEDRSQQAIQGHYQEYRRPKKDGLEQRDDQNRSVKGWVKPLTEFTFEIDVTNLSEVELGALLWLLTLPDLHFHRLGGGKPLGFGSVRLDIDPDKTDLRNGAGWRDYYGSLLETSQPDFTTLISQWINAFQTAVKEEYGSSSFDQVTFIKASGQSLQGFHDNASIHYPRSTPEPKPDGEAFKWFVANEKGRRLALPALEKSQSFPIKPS

B1: Cas10 subunit of the Synechocystis sp. PCC 6803 Type III-Dv CRISPR-Cas complex, with N-terminal His6 tag and TEV site (other)
chain: MFLVLIETSGNQHFIFSTNKLRENIGASELTYLATTEILFQGVDRVFQTNYYDQWSDTNSLNFLADSKLNPAIDDPKNNADIEILLATSGKAIALVKEEGKAKQLIKEVTKQALINAPGLEIGGIYVNCNWQDKLGVAKAVKEAHKQFEVNRAKRAGANGRFLRLPIAAGCSVSELPASDFDYNADGDKIPVSTVSKVKRETAKSAKKRLRSVDGRLVNDLAQLEKSFDELDWLAVVHADGNGLGQILLSLEKYIGEQTNRNYIDKYRRLSLALDNCTINAFKMAIAVFKEDSKKIDLPIVPLILGGDDLTVICRGDYALEFTREFLEAFEGQTETHDDIKVIAQKAFGVDRLSACAGISIIKPHFPFSVAYTLAERLIKSAKEVKQKVTVTNSSPITPFPCSAIDFHILYDSSGIDFDRIREKLRPEDNTELYNRPYVVTAAENLSQAQGYEWSQAHSLQTLADRVSYLRSEDGEGKSALPSSQSHALRTALYLEKNEADAQYSLISQRYKILKNFAEDGENKSLFHLENGKYVTRFLDALDAKDFFANANHKNQGE
notes: Whole gene amplified from Synechocystis genomic DNA and co-expressed in E. coli from pPF2434; The complex also holds a 37-nt crRNA; also called His6-TEV-Cas10; N-His6-tagged Cas10; not shown: TEV cleavage was inefficient, so
With B1, the binding result is reported as “no binding” in experiment [1] and “binds” in experiment [2].
